Test results from patent US20160251419A1 (ROCKEFELLER UNIVERSITY, published 2016).

B1: monoclonal antibody 4a8.e11 (antibody, V domains shown)
VH: EVQLQESGGGLVKPGGSLKLSCAASGFTFSDYGMHWVRQAPEKGLEWVAYISSGSSTVYCADTVKGRFTISRDNAKNTLFLQMTSLRSEDTAMYYCARRWGYFDYWGQGTTLTVSS
VL: DIKMTQSPSSMYASLGERVTFTCKASQDINSFLSWFQQKPGKSPKTLIYRANRLVDGVPSRFSGSGSGQDYSLTITSLEFEDMGIYYCLQYDEFPYTFGGGTKLEIK
notes: Mouse hybridoma mAb raised against NUCB1-capped hIAPP protofibrils; kappa light chain; also called mAb 4a8.e11
B2: monoclonal antibody 4b1.h9 (antibody, V domains shown)
VH: EVQLQESGPVLVKPGASVKMSCKASGYTFTDYYMNWVKQSHGKSLEWIGVINPYNGGTSYNQKFKGKATLTVDKSSSTAYMELNSLTSEDSAVYYCARRRGYAMDYWGQGTSVTVSS
VL: DIQMTQSPASLSASVGETVTITCRASENIYSYLAWYQQKQGKSPQLLVYNAKTLAEGVPSRFSGSGSGTQFSLKINSLQPEDFGSYYCQHHYGTPYTFGGGTNLEIK
B3: monoclonal antibody 3f2.e10 (antibody, V domains shown)
VH: EVQLQESGGGLVQPKGSLKLSCAASGFSFNTYAMNWVRQAPGKGLEWVARIRSKSNNYATYYADSVKDRFTISRDDSESMLYLQMNNLKTEDTAMYYCVRLGAMDYWGQGTSVTVSS
VL: DIVMTQSQKFMSTSVGDRVSVTCKASQNVGTNVAWYQQKPGQSPKALIYSASYRYSGVPDRFTGSGSGTDFTLTISNVQSEDLAEYFCQQYNSYPLTFGAGTKLEL
B4: monoclonal antibody 5a8.b11 (antibody, V domains shown)
VH: EVQLQESGPELVKPGASVKIPCKASGYTFTDYNMDWVKQSHGKSLEWIGDINPNNGGTIYNQKFKGKATLTVDKSSSTAYMELRSLTSEDTAVYYCARKGERGFDYWGQGTTLTVSS
VL: ENVLTQSPAIMSASLGEKVTMSCRASSSVNYMYWYQQKSDASPKLWIYYTSNLAPGVPARFSGSGSGNSYSLTISSMEGEDAATYYCQQFTSSPSTFGAGTKLELK
B5: monoclonal antibody 5c9.a2 (antibody, V domains shown)
VH: EVQLQESGPVLVKPGASVKMSCKASGYTFTDYYMNWVKQSHGKSLEWIGVINPYNGGTSYNQKFKGKATLTVDKSSSTAYMELNSLTSEDSAVYYCASLRRRTDYFDYWGQGTTLTVSS
VL: DIVMTQSHKFMSTSVGDRVSITCKASQDVGTAVAWYQQKPGQSPKLLIYWASTRHTGVPDRFTGSGSGTDFTLTISNVQSEDLADYFCQQYSSYPLTFGAGTKLELK
B6: monoclonal antibody 7b6.b12 (antibody, V domains shown)
VH: EVQLQESGAELVKPGASVKISCKVSGYTFTDHTIHWMKQRPEQGLEWIGYIYPRDGSTKYNEKFKGKATLTADKSSSTAYMQLNSLTSEDSAVYFCARPYDYAWFAYWGQGTLVTVSA
VL: DILLTQSPAILSVSPGERVSFSCRASQSIGTSIHWYQQRTNGSPRLLIKYASESISGIPSRFSGSGSGTDFTLSINSVESEDIADYYCQQSNSWPFTFGSGTKLEIK
notes: Mouse hybridoma mAb raised against NUCB1-capped hIAPP protofibrils; kappa light chain; also called mAb 7b6.b12

Target: Recombinant Aβ1-42 (rAβ1-42 peptides) in the Thioflavin T fibril formation assay (UniProt P05067 672-713)
Sequence (P05067 672-713 limits assumed): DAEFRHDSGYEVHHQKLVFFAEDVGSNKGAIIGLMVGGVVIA
Test: cell-based or functional assay

Binder | T50 (time in minutes for 50% inhibition of fibril formation)
B1 | 37.9 min
B2 | 60.7 min
B3 | 42.6 min
B4 | 40.3 min
B5 | 43.2 min
B6 | 40.2 min

Target: T1, amyloid-β Aβ(M1-42) peptide, structures along the aggregation pathway (Aβ1-42 protofibrils)
T1 construct: Expressed in E. coli
T1 sequence (peptide, as listed by the source): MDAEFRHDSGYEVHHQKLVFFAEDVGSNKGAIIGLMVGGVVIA
Test: dot blot of aggregation time points (FIG. 18)
Text: (A) Aβ₁₋₄₂ aggregation in a thioflavin T fluorescence assay guided sample collection (red circles) for a dot blot assay. (B) Samples from these time points were spotted on PVDF membranes and blotted with an anti-Aβ mAb to detect total Aβ₁₋₄₂, or with 4a8.e11, 3f2.e10, or 7b6.b12. (C) Bar graph showing quantitation of 4a8.e11 reactive material at indicated timepoints. (D) Bar graph showing quantitation of 3f2.e10 reactive material at indicated timepoints. (E) Bar graph showing quantitation of 7b6.b12 reactive material at indicated timepoints. The spots were quantified with ImageJ and normalized to total Aβ₁₋₄₂.
For kinetic experiments, aliquots of the purified Aβ42 were resuspended in 6M guanidinium hydrochloride and subjected to gel filtration on a Superdex Peptide column in 20 mM sodium phosphate buffer, pH 8, with 200 μM EDTA. The monomer-containing peak was then lyophilized and subjected to a second round of resuspension in 6M guanidinium hydrochloride and gel filtration on a Superdex Peptide column in 20 mM sodium phosphate buffer, pH 8, with 200 μM EDTA. […] Fluorescence measurements were made at regular intervals using FlexStation III (Molecular Devices) with excitation and emission at 440 and 480 nm, respectively. Each experimental point is the mean of the fluorescence signal of 6 wells containing aliquots of the same solution. […]

Binder | binding result
B1 | binds
B6 | binds
